Results: article PMC9493007
“And” between values parts separate entries of the source, which are not always exact repeats. Identical values can stand only once.

Legend:
[1] = target: YsaN wild type full length (untagged) (Yersinia enterocolitica 8081); assay: SEC; analytical Superdex 200 HR 10/30; about 10 µM protein pre-incubated with 1.5 mM ADP and 1.5 mM AlCl3 (ADP.AlFX); 50 mM Tris pH 8.0, 100 mM KCl, 4 mM MgCl2, 5 mM NaF, 1 mM DTT, 5% glycerol; 0.5 ml/min, room temperature; apparent molecular weight from a standard curve
[2] = target: YsaN∆83 (Yersinia enterocolitica 8081); assay: negative-stain TEM
[3] = target: YsaN∆83 (Yersinia enterocolitica 8081); assay: SEC; analytical Superdex 200 HR 10/30; about 10 µM protein pre-incubated with 1.5 mM ADP and 1.5 mM AlCl3 (ADP.AlFX); 50 mM Tris pH 8.0, 100 mM KCl, 4 mM MgCl2, 5 mM NaF, 1 mM DTT, 5% glycerol; 0.5 ml/min, room temperature; apparent molecular weight from a standard curve

“YsaN wild type full length (untagged) (enzyme)” was tested, and the stoichiometry N [1] was 6 and 12.
Work on YsaN∆83 (domain or fragment) yielded a stoichiometry N [2] of 6 and a stoichiometry N [3] of 6.
